# According to paper PMC4072508, “Genome-Wide Prediction and Validation of Peptides That Bind Human Prosurvival Bcl-2 Proteins” (PLoS Computational Biology, 2014):
# T1: Mcl-1, Q07820
# T1 chain: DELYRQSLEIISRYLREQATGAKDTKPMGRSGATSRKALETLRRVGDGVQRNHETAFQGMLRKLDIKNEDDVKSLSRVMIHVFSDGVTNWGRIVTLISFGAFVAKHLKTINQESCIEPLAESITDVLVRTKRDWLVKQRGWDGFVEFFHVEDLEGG
# T2: Bfl-1, Q16548
# T2 chain: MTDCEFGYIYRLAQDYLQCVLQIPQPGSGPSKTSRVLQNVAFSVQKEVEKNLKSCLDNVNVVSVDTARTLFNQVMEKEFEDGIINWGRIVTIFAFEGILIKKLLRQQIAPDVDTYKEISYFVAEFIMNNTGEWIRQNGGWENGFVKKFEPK
# Key:
# Test in all cases: peptide SPOT array, c-Myc-tagged receptor at 1 uM or 100 nM, anti-c-Myc-Cy3
# Mcl-1, Q07820 = target: T1, Mcl-1, Q07820
# Bcl-xL, Q07817 = target: Bcl-xL, Q07817
# Sequence of Bcl-xL, Q07817 (Q07817 1-209): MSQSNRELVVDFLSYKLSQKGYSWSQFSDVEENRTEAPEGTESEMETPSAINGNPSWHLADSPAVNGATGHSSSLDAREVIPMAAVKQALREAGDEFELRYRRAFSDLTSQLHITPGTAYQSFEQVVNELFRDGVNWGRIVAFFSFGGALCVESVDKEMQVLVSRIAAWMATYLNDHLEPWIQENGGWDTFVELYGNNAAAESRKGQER
# Bfl-1, Q16548 = target: T2, Bfl-1, Q16548
Binder,"SPOT signal as a fraction of Bim BH3's signal on the same receptor and array (Mcl-1, Q07820)","SPOT signal as a fraction of Bim BH3's signal on the same receptor and array (Bcl-xL, Q07817)","SPOT signal as a fraction of Bim BH3's signal on the same receptor and array (Bfl-1, Q16548)"
IQENVDISTVYQIFLDEVLGSGQFGI [PRKD3],0.05,0.08,0.05
NDDTPWIARTLDNLLDELTAILSAPA [GBP6],0.04,0.05,0.04
RAKASSLSEEDKHFADGLETDGTLQK [DSN1],0.04,0.06,0.03
ISSLDLLPYGDRYIAKVLKNSIHEKF [IQGAP2],0.34,0.64,0.51
PAKKMTLSEIDRWICDNFPYYKNAGI,0.29,0.58,0.26
ADVHGIWSRLFCDFLDEFEVLDTTGE [UBA6],0.05,0.06,0.04
CHGLRELALNYHLLSDELLLALSSEK [FBXL3],0.06,0.07,0.04
GYPFNDVCQWFIDRADLIFVVFDPTK [SRL],0.06,0.07,0.05
YIVLGLRKTTLQKVGKEVAELVGRVG [NLRX1],0.33,0.36,0.26
DSLLWKLAGLLRESGDVVLSGCSTLS [STK11IP],0.05,0.06,0.04
APGEEDLCAAFNVILDNVGKDWRRLA [FADD],0.06,0.06,0.04
MEMYQPSAVVLQCGLDSLSGDRLGCF,0.04,0.06,0.03
PAKKMTLSEIYRWILDNFPYYKNAGI,0.42,0.82,0.45
ISSYMVLAPVDGYLGDRYNRKYLMCG [SPNS1],0.69,1.03,0.68
SQEPLEKAQLLALVGDQLIQSHHYAA [MCF2L2],0.04,0.06,0.04
NNNMDVESRTMATMGDTLASRGLLDA [SEC16A],0.03,0.04,0.06
SKEVAILCSFDLGLGDSCFNTQLLSI [MFSD11],0.04,0.08,0.03
PKKKMTLSEIDQWICDNFPYYREAGS [FOXJ3],0.1,0.08,0.06
PALLVHWAKCLQKMLRGLNSSYDQQE [RGPD2],0.45,0.55,0.39
KQMKEDGACLDRAVADQVYGDQDMHE,–,–,0.0533
SWFIQSLCAMLKQYLDKLEFMHILTR [CASP3],–,0.27,0.21
THFLDEEVKLIKKMGDHLTNLHRLGG [FTL],–,–,0.04
KQMKEDGACLFRAVLDQVYGDQDMHE,–,–,0.0567
MEMYQPSAVVLQCGADSLSGDRLGCF,–,–,0.03
KQMKEDGACLFRAVADQVYGDQDMHE,–,–,0.0533
ERAISCMGQIICNLGDNLGSDLPNTL [CAND1],0.01,0.01,–
VLSRIEAGRSLKSVLDEFGISKSTFY [TIGD7],0.085,0.08,–
NKSLTTLGLVISSLADQAAGKGKSKF [KIF13A],0.18,0.4,–
